We go through 32 molecules from patent publication US20080044360A1 (COLLAGEN MEDICAL, published 2008).

Assay [1] deals with T1, human collagen type I, acid soluble, extracted from placenta (Sigma C7774) (human, UniProt P02452 162-1218; P08123 80-1119).
T1 construct: tissue extract, gelled and dried in wells; also called dried human collagen; h-Collagen
Description: dried collagen assay.

Assay [2] concerns the target T2, rat collagen, acid soluble, type I, rat tail (Upstate 08-115) (rat, UniProt P02454 152-1207; P02466 86-1125).
T2 construct: tissue extract, gelled and dried in wells; also called dried rat collagen
Description: dried collagen assay.

Bridge positions count the residues as written; N and C are the ends. Square brackets hold non-standard residues; d marks the D form. Primed or numbered codes have the meaning given here. Side chains are listed from the residue outwards. Ends that are not written are not given here. * marks the point of attachment. Gd^D = GdDOTAGA (gadolinium DOTAGA chelate); Bip = N[C@@H](Cc1ccc(-c2ccccc2)cc1)C(=O)O; Tyr(3-I) = N[C@@H](Cc1ccc(O)c(I)c1)C(=O)O; Phe(4-NH2) = Nc1ccc(C[C@H](N)C(=O)O)cc1; Gd^T(3) = GdDTPA attached via thiourea; 1,4 AMB(Gd^T) = not defined here; Hyp = O=C(O)[C@@H]1C[C@@H](O)CN1; 4Pal = N[C@@H](Cc1ccncc1)C(=O)O; Gd^G = not defined here; Gd^T = not defined here; Gd^T″ = GdDTPA-thiourea; NH(CH2)6NH2 = NCCCCCCN*; AEEA = NCCOCCOCC(=O)O; Aib = CC(C)(N)C(=O)O

T1 sequence (P02452 162-1218 limits assumed, chain 1 of 2): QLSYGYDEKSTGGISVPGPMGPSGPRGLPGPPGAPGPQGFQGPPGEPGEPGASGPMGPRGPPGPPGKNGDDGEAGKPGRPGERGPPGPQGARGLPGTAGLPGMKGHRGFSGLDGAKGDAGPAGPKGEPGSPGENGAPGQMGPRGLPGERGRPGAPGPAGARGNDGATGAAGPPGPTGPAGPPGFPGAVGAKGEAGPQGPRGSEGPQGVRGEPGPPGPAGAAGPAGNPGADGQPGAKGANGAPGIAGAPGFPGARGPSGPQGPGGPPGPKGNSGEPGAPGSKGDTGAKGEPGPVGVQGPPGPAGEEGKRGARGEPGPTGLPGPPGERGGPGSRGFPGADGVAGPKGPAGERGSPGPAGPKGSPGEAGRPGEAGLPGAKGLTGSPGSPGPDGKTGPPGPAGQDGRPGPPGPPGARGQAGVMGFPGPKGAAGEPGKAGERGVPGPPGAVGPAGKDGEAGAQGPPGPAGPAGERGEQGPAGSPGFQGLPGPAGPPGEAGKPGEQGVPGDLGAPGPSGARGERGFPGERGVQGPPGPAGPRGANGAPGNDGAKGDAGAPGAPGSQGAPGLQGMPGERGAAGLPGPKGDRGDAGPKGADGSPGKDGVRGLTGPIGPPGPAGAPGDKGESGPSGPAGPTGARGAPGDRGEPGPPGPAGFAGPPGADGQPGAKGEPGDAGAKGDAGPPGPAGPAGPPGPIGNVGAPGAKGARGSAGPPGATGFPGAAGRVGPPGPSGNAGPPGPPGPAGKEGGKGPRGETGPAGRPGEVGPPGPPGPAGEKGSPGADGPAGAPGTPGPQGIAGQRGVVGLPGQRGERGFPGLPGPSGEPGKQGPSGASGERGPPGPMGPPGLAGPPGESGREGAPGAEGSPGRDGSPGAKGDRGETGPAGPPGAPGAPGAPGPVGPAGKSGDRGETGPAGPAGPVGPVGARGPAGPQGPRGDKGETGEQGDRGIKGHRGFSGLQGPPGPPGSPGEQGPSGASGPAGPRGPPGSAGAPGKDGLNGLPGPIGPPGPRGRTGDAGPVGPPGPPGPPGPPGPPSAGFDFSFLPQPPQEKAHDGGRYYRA
T1 sequence (P08123 80-1119 limits assumed, chain 2 of 2): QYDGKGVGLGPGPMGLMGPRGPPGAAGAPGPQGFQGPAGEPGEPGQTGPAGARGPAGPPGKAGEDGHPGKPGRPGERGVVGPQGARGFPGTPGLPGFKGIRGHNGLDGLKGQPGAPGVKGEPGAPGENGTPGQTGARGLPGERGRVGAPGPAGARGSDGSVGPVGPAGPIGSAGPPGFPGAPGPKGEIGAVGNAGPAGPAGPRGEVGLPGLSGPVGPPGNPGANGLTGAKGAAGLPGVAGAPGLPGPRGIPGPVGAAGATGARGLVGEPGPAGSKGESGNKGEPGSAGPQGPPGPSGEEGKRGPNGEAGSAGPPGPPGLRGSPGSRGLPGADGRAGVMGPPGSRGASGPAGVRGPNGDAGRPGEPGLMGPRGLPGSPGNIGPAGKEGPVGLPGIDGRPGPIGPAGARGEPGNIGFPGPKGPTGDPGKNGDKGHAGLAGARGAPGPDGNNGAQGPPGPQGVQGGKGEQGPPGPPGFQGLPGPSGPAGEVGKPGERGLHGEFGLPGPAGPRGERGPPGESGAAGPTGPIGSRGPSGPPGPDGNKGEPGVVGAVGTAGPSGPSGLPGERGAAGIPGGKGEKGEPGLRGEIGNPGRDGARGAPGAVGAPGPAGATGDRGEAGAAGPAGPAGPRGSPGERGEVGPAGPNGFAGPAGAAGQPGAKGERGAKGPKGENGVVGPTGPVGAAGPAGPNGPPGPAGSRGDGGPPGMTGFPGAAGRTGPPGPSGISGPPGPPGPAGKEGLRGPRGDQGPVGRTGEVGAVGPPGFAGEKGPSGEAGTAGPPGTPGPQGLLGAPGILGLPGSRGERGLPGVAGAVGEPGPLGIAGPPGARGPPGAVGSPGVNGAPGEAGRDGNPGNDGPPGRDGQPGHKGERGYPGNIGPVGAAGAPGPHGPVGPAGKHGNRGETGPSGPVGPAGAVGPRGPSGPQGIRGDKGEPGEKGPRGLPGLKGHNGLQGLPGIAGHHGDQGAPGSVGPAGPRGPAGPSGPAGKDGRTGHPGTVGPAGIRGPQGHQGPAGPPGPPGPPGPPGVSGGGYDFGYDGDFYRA
T2 sequence (P02454 152-1207, chain 1 of 2): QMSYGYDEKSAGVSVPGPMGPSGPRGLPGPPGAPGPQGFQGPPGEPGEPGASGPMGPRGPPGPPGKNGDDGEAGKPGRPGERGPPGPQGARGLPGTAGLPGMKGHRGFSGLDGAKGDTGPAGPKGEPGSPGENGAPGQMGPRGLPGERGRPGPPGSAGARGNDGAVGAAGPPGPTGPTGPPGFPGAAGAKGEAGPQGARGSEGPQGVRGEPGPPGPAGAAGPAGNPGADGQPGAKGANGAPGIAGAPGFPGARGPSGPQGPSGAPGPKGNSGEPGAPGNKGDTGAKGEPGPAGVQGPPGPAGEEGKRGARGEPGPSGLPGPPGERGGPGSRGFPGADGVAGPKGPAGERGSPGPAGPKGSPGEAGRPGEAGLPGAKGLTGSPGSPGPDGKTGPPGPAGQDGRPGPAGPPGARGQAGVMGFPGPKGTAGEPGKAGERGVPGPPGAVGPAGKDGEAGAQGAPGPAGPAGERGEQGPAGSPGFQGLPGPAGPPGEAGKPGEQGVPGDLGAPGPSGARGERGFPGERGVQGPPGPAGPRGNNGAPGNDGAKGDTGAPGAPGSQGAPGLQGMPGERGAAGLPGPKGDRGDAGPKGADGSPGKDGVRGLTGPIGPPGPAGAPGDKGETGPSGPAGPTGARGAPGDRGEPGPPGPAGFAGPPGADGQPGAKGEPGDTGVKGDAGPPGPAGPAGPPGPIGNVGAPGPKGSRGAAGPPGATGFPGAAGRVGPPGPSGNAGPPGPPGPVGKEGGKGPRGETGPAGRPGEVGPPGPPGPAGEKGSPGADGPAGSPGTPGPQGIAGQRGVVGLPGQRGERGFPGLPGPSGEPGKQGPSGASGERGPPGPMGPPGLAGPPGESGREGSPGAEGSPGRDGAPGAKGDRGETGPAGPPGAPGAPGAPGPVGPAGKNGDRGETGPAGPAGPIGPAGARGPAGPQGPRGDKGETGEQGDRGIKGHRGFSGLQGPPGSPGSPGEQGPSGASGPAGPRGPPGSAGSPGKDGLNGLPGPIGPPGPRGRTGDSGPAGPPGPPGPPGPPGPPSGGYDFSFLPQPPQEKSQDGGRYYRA
T2 sequence (P02466 86-1125, chain 2 of 2): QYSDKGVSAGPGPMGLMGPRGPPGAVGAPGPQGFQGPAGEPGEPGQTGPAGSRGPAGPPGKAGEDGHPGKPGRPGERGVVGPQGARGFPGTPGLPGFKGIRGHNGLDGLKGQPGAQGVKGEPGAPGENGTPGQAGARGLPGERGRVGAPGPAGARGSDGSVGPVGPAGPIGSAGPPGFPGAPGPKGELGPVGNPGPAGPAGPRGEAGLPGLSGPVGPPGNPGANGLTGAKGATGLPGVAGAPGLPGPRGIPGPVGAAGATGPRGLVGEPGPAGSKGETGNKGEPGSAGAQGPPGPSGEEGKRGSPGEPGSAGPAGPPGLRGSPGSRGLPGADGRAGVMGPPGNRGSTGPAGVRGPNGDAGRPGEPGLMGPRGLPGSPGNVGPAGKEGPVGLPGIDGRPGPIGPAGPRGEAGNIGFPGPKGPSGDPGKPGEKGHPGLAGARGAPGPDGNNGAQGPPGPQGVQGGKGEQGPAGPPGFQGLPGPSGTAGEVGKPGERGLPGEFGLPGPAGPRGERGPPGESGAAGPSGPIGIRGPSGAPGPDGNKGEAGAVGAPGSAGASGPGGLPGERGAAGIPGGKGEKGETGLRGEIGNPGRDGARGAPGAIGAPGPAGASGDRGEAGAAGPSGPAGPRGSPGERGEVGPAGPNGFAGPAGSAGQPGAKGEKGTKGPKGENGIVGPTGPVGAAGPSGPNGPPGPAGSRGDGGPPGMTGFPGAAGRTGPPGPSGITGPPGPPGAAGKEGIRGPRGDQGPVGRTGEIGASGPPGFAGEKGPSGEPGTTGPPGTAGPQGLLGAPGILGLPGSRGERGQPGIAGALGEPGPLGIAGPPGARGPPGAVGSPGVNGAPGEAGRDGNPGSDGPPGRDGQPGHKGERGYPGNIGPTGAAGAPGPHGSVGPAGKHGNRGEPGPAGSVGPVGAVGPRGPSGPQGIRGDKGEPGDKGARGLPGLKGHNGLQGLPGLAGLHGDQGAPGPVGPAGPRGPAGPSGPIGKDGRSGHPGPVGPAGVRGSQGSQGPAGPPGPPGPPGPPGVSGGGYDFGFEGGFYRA

Consider {Gd^T}-DWTCSGDEYTWHCNY[Aib] (disulfide 4-13; not fully specified (C-terminus); reading uncertain) [Compound ID 850], for which the “% bound” value in assay [1] stood at 75%; in assay [2], 67%.

{Gd^T″}-GK([Gly-Gd^T″])WHCTTK(Gd^T″)FPHHYCLY[Bip] (disulfide 5-14; not fully specified (C-terminus), also called Comp ID No:800) [Compound ID 800]: the “% bound” value was 85% in assay [1] and 88% in assay [2].

{Gd^T(3)}-GK([Gly-Gd^T(3)])WHCTTYFPHHYCLY[Bip] (disulfide 5-14) [Compound ID 950]: the figures for the “% bound” value in assay [1] and in assay [2] were 78% and 79%, respectively.

Take {Gd^T(3)}-K(Gd^T(3))K(Gd^T(3))WHCTTK(Gd^T(3))FPHHYCLY[Bip] (disulfide 5-14 (inferred)) [Compound ID 997]: the entries for the “% bound” value in assay [1] and in assay [2] were 53% and 55%, respectively.

On to {Gd^T}-PPQWHCTTRF[Hyp]HHYCLYG (disulfide 6-15; not fully specified (C-terminus); reading uncertain) [Compound ID 856], for which the “% bound” value in assay [1] was found to be 52%; in assay [2], 42%.

{Gd^G}-GQWTCSGDEYTWHCNY (disulfide 5-14 (inferred); not fully specified (C-terminus); reading uncertain) [Compound ID 823]: the “% bound” value in assay [1] stood at 53%; in assay [2] it was 28%.

With {Gd^T″}-GQWTCYGDEYTWYCNYE (disulfide 5-14 (inferred); not fully specified (C-terminus)) [Compound ID 826], the “% bound” value was 87% in assay [1] and 71% in assay [2].

With {Gd^T″}-GQWHCTTRFPHHYCLYG[dK](Gd^T″) (disulfide 5-14 (inferred); not fully specified (C-terminus)) [Compound ID 808], the “% bound” value amounted to 25% in assay [1] and 19% in assay [2].

Turning to {Gd^T}-PPQWHCTTRFPHHYCLYG (disulfide 6-15 (inferred); not fully specified (C-terminus); reading uncertain) [Compound ID 854], the “% bound” value is 64% in assay [1] and 56% in assay [2].

Consider {Gd^T″}-GQWHCTTRFPHHYCLYGK(Gd^T″) (disulfide 5-14 (inferred); not fully specified (C-terminus)) [Compound ID 807], for which the “% bound” value in assay [1] turned out to be 48%; in assay [2], 45%.

Turning to {Gd^G}-GQWTCSGDAYTWHCAYE (disulfide 5-14 (inferred); not fully specified (C-terminus); reading uncertain) [Compound ID 820], the “% bound” value in assay [1] is 60%; in assay [2] it was 29%.

Take GQWTCSGDAYTWHCNYE (disulfide 5-14 (inferred); not fully specified (N-terminus, C-terminus)) [Compound ID 838]: the “% bound” value was found to be 70% in assay [1] and 61% in assay [2].

Consider {Gd^T}-GQWTCSGDEYTWHCAYE (disulfide 5-14 (inferred); not fully specified (C-terminus); reading uncertain) [Compound ID 839], for which the “% bound” value in assay [1] came to 30%; in assay [2], 11%.

With {Gd^T}-GQWTCSGDEYTWHCNYA (disulfide 5-14 (inferred); not fully specified (C-terminus); reading uncertain) [Compound ID 841], the “% bound” value in assay [1] is 51%; in assay [2] it was 28%.

As for {Gd^T″}-GAWTCSGDEYTWHCNYE (disulfide 5-14 (inferred); not fully specified (C-terminus)) [Compound ID 830], the “% bound” value in assay [1] came out at 26%; in assay [2], 11%.

Regarding {Gd^T}-DWTC[4Pal]GDEYTWHCNYE (disulfide 4-13; not fully specified (C-terminus); reading uncertain) [Compound ID 849], the “% bound” value in assay [1] amounted to 64%; in assay [2], 42%.

Regarding {Gd^T″}-GK([Gly-Gd^T″])WHCTTYFPHHVCLYG (disulfide 5-14 (inferred)) [Compound ID 965], the “% bound” value in assay [1] turned out to be 26%; in assay [2], 11%.

Take {Gd^T″}-GK([Gly-Gd^T″])WHCYK(Gd^T″)YFPHHYCLYG (disulfide 5-14 (inferred); not fully specified (C-terminus)) [Compound ID 991]: the “% bound” value in assay [1] stood at 23%; in assay [2], 11%.

In the case of {Gd^T″}-GK([Gly-Gd^T″])WHCTTYFPHHYCL[Phe(4-NH2)](Gd^T″)G (disulfide 5-14 (inferred); not fully specified (C-terminus)) [Compound ID 971], the “% bound” value is 21% in assay [1] and 25% in assay [2].

With {Gd^T″}-GK([Gly-Gd^T″])WHCYTK(Gd^T″)FPHHYCK(Gd^T″)YY (disulfide 5-14 (inferred)) [Compound ID 1013], the results for the “% bound” value in assay [1] and in assay [2] were 81% and 88%, respectively.

As to {Gd^T″}-GK([Gly-Gd^T″])WHCYTYFPHHYCVYG-{NH(CH2)6NH2-Gd^T″} (disulfide 5-14 (inferred)) [Compound ID 999], the “% bound” value was 65% in assay [1] and 66% in assay [2].

As to {Gd^T″}-GK([Gly-Gd^T″])WHCTTYFPHH[Phe(4-NH2)]CLYG (disulfide 5-14 (inferred); not fully specified (C-terminus)) [Compound ID 972], the “% bound” value in assay [1] turned out to be 3%; in assay [2] it was 0%.

Consider {Gd^T″}-GK([Gly-Gd^T″])WHCYTK(Gd^T″)FPHHYCVYY (disulfide 5-14 (inferred); not fully specified (C-terminus)) [Compound ID 979], for which the “% bound” value is 87% in assay [1] and 86% in assay [2].

For {Gd^T″}-GK([Gly-Gd^T″])WYCTTYFPHHYCLYG (disulfide 5-14 (inferred); not fully specified (C-terminus)) [Compound ID 990], the results for the “% bound” value in assay [1] and in assay [2] were 59% and 62%, respectively.

Take {Gd^T″}-GK([Gly-Gd^T″])WHCYTYFPHHYCVYG-{AEEA-Gd^T″} (disulfide 5-14 (inferred)) [Compound ID 998]: the entries for the “% bound” value in assay [1] and in assay [2] were 71% and 75%, respectively.

With {Gd^T″}-GK([Gly-Gd^T″])WHCYTYFPHHYCVYG-{1,4 AMB(Gd^T)} (disulfide 5-14 (inferred); reading uncertain) [Compound ID 1000], the “% bound” value is 75% in assay [1] and 68% in assay [2].

Turning to {Gd^T″}-GK([Gly-Gd^T″])WHCYTK(Gd^T″)FPYHYCVYY (disulfide 5-14 (inferred)) [Compound ID 1011], the “% bound” value in assay [1] came to 94%; in assay [2], 93%.

For the molecule {Gd^T″}-GK([Gly-Gd^T″])WHCYTK(Gd^T″)FPHHYCVYG (disulfide 5-14 (inferred); not fully specified (C-terminus)) [Compound ID 978], the “% bound” value was found to be 64% in assay [1] and 66% in assay [2].

Regarding {Gd^T″}-GK([Gly-Gd^T″])WHCTTK(Gd^T″)FPHHYCLYY (disulfide 5-14 (inferred); not fully specified (C-terminus)) [Compound ID 980], the figures for the “% bound” value in assay [1] and in assay [2] were 85% and 80%, respectively.

Turning to {Gd^T″}-GK([Gly-Gd^T″])WHC[Tyr(3-I)]TYFPHHYCLYG (disulfide 5-14 (inferred); not fully specified (C-terminus)) [Compound ID 973], the “% bound” value in assay [1] was 85%; in assay [2], 92%.

Turning to {Gd^D}-K(Gd^D)K(Gd^D)WHCYTYFPHHYCVYG (disulfide 5-14 (inferred)) [Compound ID 1014], the results for the “% bound” value in assay [1] and in assay [2] were 72% and 61%, respectively.

Turning to {Gd^T″}-GK([Gly-Gd^T″])WHCTTYFPHHYCL[Phe(4-NH2)]G (disulfide 5-14 (inferred); not fully specified (C-terminus)) [Compound ID 970], the “% bound” value worked out at 53% in assay [1] and 54% in assay [2].
